Experimental data as given in PMC10873202, “Structural mechanisms of autoinhibition and substrate recognition by the ubiquitin ligase HACE1” (Nature Structural & Molecular Biology, 2024).
Substitutions are numbered along the chain they refer to.

T1: HACE1 full length, wild type (HACE1 FL) (human), Q8IYU2
T1 chain: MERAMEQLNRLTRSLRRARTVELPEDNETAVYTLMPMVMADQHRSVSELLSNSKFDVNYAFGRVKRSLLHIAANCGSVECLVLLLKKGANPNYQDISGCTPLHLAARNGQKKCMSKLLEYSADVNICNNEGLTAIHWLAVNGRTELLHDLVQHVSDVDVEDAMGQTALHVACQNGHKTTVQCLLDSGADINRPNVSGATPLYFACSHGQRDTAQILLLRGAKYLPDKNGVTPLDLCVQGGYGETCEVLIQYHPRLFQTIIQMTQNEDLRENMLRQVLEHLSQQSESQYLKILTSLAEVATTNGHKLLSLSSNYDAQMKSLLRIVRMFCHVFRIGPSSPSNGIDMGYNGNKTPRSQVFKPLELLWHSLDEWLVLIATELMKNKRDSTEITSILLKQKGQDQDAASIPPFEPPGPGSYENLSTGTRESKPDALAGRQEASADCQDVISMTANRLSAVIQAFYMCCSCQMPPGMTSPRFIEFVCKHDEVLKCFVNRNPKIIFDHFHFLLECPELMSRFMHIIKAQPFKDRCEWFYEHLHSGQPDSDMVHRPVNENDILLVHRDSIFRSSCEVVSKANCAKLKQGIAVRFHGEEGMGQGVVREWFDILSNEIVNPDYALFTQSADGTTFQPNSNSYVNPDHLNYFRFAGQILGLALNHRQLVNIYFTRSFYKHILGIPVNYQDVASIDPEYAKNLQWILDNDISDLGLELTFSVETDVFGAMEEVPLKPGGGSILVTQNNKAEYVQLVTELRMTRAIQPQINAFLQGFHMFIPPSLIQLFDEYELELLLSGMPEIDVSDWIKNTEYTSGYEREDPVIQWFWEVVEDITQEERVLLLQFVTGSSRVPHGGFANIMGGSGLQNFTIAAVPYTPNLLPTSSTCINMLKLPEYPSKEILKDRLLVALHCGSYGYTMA

B1: HACE1 full length, wild type (HACE1 FL), Q8IYU2 1-909 (enzyme)
chain: T1 chain
B2: HACE1 L8A (enzyme, human, UniProt Q8IYU2 1-909, looked up)
chain: T1 chain with L8A
notes: HACE1, human, full-length variant; also called Leu8 substituted with alanine; source: E. coli BL21(DE3), purified (IMAC, tag removal, SEC); not shown: His6 (pSKB2) or His10-tandem Z (pN-HZ10-ZZ(3)), N-terminal, cleaved
B3: HACE1 L11A (enzyme, human, UniProt Q8IYU2 1-909, looked up)
chain: T1 chain with L11A
notes: HACE1, human, full-length variant; also called Leu11 substituted with alanine; source: E. coli BL21(DE3), purified (IMAC, tag removal, SEC); not shown: His6 (pSKB2) or His10-tandem Z (pN-HZ10-ZZ(3)), N-terminal, cleaved
B4: HACE1 L15A (enzyme, human, UniProt Q8IYU2 1-909, looked up)
chain: T1 chain with L15A
notes: HACE1, human, full-length variant; also called Leu15 substituted with alanine; source: E. coli BL21(DE3), purified (IMAC, tag removal, SEC); not shown: His6 (pSKB2) or His10-tandem Z (pN-HZ10-ZZ(3)), N-terminal, cleaved
B5: HACE1 T12E (enzyme, human, UniProt Q8IYU2 1-909, looked up)
chain: T1 chain with T12E
notes: HACE1, human, control phospho-mimetic variant compared with the wild-type dimer ('FL'); source: E. coli BL21(DE3), purified (IMAC, tag removal, SEC); not shown: His6 (pSKB2) or His10-tandem Z (pN-HZ10-ZZ(3)), N-terminal, cleaved
B6: HACE1 L704D (enzyme, human, UniProt Q8IYU2 1-909, looked up)
chain: T1 chain with L704D
notes: HACE1, human, full-length variant (HECT N-lobe); source: E. coli BL21(DE3), purified (IMAC, tag removal, SEC); not shown: His6 (pSKB2) or His10-tandem Z (pN-HZ10-ZZ(3)), N-terminal, cleaved
B7: HACE1 L8D (enzyme, human, UniProt Q8IYU2 1-909, looked up)
chain: T1 chain with L8D
notes: HACE1, human, full-length variant; source: E. coli BL21(DE3), purified (IMAC, tag removal, SEC); not shown: His6 (pSKB2) or His10-tandem Z (pN-HZ10-ZZ(3)), N-terminal, cleaved

Experiments:
[1] = target: T1, HACE1 full length, wild type (HACE1 FL) …; assay: mass photometry; HACE1 samples at 20–40 nM in 25 mM HEPES (pH 8.0), 150 mM NaCl; One^MP mass photometer, BSA calibration; conditions: remark: other sources report otherwise
[2] = target: T1, HACE1 full length, wild type (HACE1 FL) …; assay: SEC; analytical SEC, 20 μM HACE1, 50 mM HEPES (pH 8.0), 150 mM NaCl, 1 mM DTT, Superdex 200 Increase 3.2/300, 4 °C; conditions: remark: other sources report otherwise
[3] = target: the molecule itself; assay: mass photometry; HACE1 samples at 20–40 nM in 25 mM HEPES (pH 8.0), 150 mM NaCl; One^MP mass photometer, BSA calibration

Binder	stoichiometry N [1]	stoichiometry N [2]	binding result [3]
B1	2	2	
B2			binds
B3			binds
B4			binds
B5			binds
B6			binds
B7			binds
